Experimental data published in paper PMC3798461.

How the values were obtained:
[1] = biological target: mLANA_(140–272), C-terminal DNA-binding domain of murine gammaherpesvirus 68 latency-associated nuclear antigen (murine gammaherpesvirus 68 (MHV-68)); assay: SEC; purified mLANA DBD truncations analysed by size exclusion chromatography; oligomeric state from the elution volume
[2] = test system: mLANA124-272 WT (Murine gammaherpesvirus 68 (MHV-68, MuHV-4)); assay: SPR; details: 5' biotin with TTTTT spacer; EMSA: 20 mM Tris-HCl pH 7.5, 50 mM KCl, 10 mM MgCl2, 1 mM EDTA, 20 ug/mL poly(dI-dC), 0.1 mM DTT, 10% glycerol, RT; ITC: 25 mM Na/K phosphate pH 7.0, 150 mM …
[3] = test system: mLANA124-314 WT (Murine gammaherpesvirus 68 (MHV-68, MuHV-4)); assay: ITC; details: EMSA: 20 mM Tris-HCl pH 7.5, 50 mM KCl, 10 mM MgCl2, 1 mM EDTA, 20 ug/mL poly(dI-dC), 0.1 mM DTT, 10% glycerol, RT; ITC: 25 mM Na/K phosphate pH 7.0, 150 mM …
[4] = biological target: mLANA_(140–314) (murine gammaherpesvirus 68 (MHV-68)); assay: SEC; purified mLANA DBD truncations analysed by size exclusion chromatography; oligomeric state from the elution volume

Substance “mLANA_(140–272), C-terminal DNA-binding domain of murine gammaherpesvirus 68 latency-associated nuclear antigen (domain or fragment)” has a stoichiometry N [1] of 2.

In the case of mLBS1 SPR ligand (biotin-TTTTT-mLBS1), the Kd [2] is reported as 169 nM.

With mLBS1 for ITC and SEC (no spacer) the Kd [3] was 66 nM.

mLANA_(140–314) (domain or fragment) gave a stoichiometry N [4] of 4.
